Experimental findings from PMC7367684, “Mechanical inhibition of isolated Vo from V/A-ATPase for proton conductance” (eLife, 2020) are described below.

T1: a subunit of the Thermus thermophilus V/A-ATPase (Thermus thermophilus, UniProt Q5SIT6 1-652)
T1 construct: a subunit (subunit I) of the V/A-ATPase of Thermus thermophilus, strain HB8; soluble arm domain asol and C-terminal hydrophobic domain aCT (membrane domain printed as A327-E637); also called asol (soluble arm domain); aCT (membrane-embedded C-terminal region)
T1 sequence: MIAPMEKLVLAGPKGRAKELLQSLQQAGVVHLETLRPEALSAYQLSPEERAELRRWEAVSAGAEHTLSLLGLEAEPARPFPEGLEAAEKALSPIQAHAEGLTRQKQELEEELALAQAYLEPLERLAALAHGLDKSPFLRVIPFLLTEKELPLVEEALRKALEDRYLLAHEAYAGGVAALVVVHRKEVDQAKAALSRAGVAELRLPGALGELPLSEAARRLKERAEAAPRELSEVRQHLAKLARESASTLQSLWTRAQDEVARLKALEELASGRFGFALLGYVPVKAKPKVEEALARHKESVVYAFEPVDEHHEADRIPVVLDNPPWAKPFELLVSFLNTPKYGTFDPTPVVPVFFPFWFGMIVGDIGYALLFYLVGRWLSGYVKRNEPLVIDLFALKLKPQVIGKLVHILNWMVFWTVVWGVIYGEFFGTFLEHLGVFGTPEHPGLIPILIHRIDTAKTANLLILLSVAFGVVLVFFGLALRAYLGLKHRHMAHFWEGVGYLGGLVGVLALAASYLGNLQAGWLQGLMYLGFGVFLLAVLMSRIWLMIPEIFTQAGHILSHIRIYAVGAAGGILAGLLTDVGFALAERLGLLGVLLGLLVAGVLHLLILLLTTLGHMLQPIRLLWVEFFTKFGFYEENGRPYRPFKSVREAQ

B1: c subunit of the Thermus thermophilus V/A-ATPase (c12 rotor ring) (natural protein)
chain: AEEAAASGGLDRGLIAVGMGLAVGLAALGTGVAQARIGAAGVGAIAEDRSNFGTALIFLLLPETLVIFGLLIAFILNGRL
notes: c subunit (subunit K/L, proteolipid) of the V/A-ATPase of Thermus thermophilus, strain HB8; chains Y and Z of the model are named in the text; Stands as a ring of twelve copies in Vo; also called c12 ring; c-ring; not shown: His3, C-terminal, kept; copies: 12
B2: F subunit of the Thermus thermophilus V/A-ATPase (natural protein)
chain: MAVIADPETAQGFRLAGLEGYGASSAEEAQSLLETLVERGGYALVAVDEALLPDPERAVERLMRGRDLPVLLPIAGLKEAFQGHDVEGYMRELVRKTIGFDIKL
notes: F subunit (central shaft) of the V/A-ATPase of Thermus thermophilus, strain HB8; also called subunit F; source: T. thermophilus membranes, V/A-ATPase purified (Ni-NTA by the His3 tag on the c-subunit, Resource Q), in nanodiscs
B3: d subunit of the Thermus thermophilus V/A-ATPase (natural protein)
chain: MADDFAYLNARVRVRRGTLLKESFFQEALDLSFADFLRLLSETVYGGELAGQGLPDVDRAVLRTQAKLVGDLPRLVTGEAREAVRLLLLRNDLHNLQALLRAKATGRPFEEVLLLPGTLREEVWRQAYEAQDPAGMAQVLAVPGHPLARALRAVLRETQDLARVEALLAKRFFEDVAKAAKGLDQPALRDYLALEVDAENLRTAFKLQGSGLAPDAFFLKGGRFVDRVRFARLMEGDYAVLDELSGTPFSGLSGVRDLKALERGLRCVLLKEAKKGVQDPLGVGLVLAYVKEREWEAVRLRLLARRAYFGLPRAQVEEEVVCP
notes: d subunit (subunit C) of the V/A-ATPase of Thermus thermophilus, strain HB8
B4: D subunit of the Thermus thermophilus V/A-ATPase (natural protein)
chain: MSQVSPTRMNLLQRRGQLRLAQKGVDLLKKKRDALVAEFFGLVREAMEARKALDQAAKEAYAALLLAQAFDGPEVVAGAALGVPPLEGVEAEVENVWGSKVPRLKATFPDGALLSPVGTPAYTLEASRAFRRYAEALIRVANTETRLKKIGEEIKKTTRRVNALEQVVIPGIRAQIRFIQQVLEQREREDTFRLKRIKGKIEAREAEEEGGRPNPQVEIGAGL
notes: D subunit (central shaft) of the V/A-ATPase of Thermus thermophilus, strain HB8; holds the short helix called screw driver helix (SDH); also called subunit D; axis subunit of the V1 domain; source: T. thermophilus membranes, V/A-ATPase purified (Ni-NTA by the His3 tag on the c-subunit, Resource Q), in nanodiscs

Series [1] deals with the molecule itself. Kind of series: cryo-EM structure; isolated Vo (His3 tag on the c subunit) in nanodiscs (MSP1E3D1, DMPC by the methods), 20 mM Tris-HCl pH 8.0, 150 mM NaCl; CRYOARM200, K2 Summit; 3.9 Å.
Series [2] has as its target B4. In words: cryo-EM structure; holo V/A-ATPase (His3 tag on the c subunit) in nanodiscs (MSP1E3D1, POPC), 20 mM Tris-HCl pH 8.0, 150 mM NaCl, 2 mM MgCl2; Titan Krios, Falcon II; rotational state 1, 3.6 Å overall, 3.5 Å focused map of A3B3DFE2G2dasol. The conditions noted are these: both partners purified.
Series [3] has as its target T1, a subunit of the Thermus thermophilus …. In words: cryo-EM structure; isolated Vo (His3 tag on the c subunit) in nanodiscs (MSP1E3D1, DMPC by the methods), 20 mM Tris-HCl pH 8.0, 150 mM NaCl; CRYOARM200, K2 Summit; 3.9 Å. Conditions: both partners purified.
In series [4] the target is B3. In words: cryo-EM structure; holo V/A-ATPase (His3 tag on the c subunit) in nanodiscs (MSP1E3D1, POPC), 20 mM Tris-HCl pH 8.0, 150 mM NaCl, 2 mM MgCl2; Titan Krios, Falcon II; rotational state 1, 3.6 Å overall, 3.5 Å focused map of A3B3DFE2G2dasol. Conditions: both partners purified.

B1: the stoichiometry N (as a rule, a count of units in the complex or per binding partner) in series [1] came out at 12.
In the case of B2, the binding result in series [2] is reported as “binds”.
As to B3, the binding result in series [3] is on record as “binds”.
For the molecule B4, the binding result in series [4] is on record as “binds”.
